± gives the standard deviation of the averaged measurements.
B1: library; a variant is named by its letters at N, in order (parent)
chain: ACATTTGTTGATACAACCATAAAATGATAATTACACCCATAAATTGATAATTATCACACCCANNNNNNNNNNNNNNCTCTGATCATAGTCAGACCAACATTGCTACGACCCGTATTCGCACCGACAC

Legend:
[1] = variants of: B1; assay: relative integration efficiency (T-RL orientation) vs wild-type transposon end (log2 (normalized fold change)); transposon end mutated: right end (5 bp flank + 75 bp right end); higher = more efficient transposition; conditions: with VchCAST RNA-guided transposition machinery (E. coli BL21(DE3) host, lacZ target)
How it was run: (§1)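 Relative integration efficiency is a fold change of output over input barcode abundance, normalised to reference barcodes and log-transformed. Input plasmids and genomic integration junctions were PCR-amplified and Illumina-sequenced from E. coli BL21(DE3) co-transformed with a T7-driven effector plasmid and pUC57 donor pools of 1549 left-end or 1849 right-end transposon variants. Plating was done with 0.1 mM IPTG at 37°C for 18 h, with two biological output replicates and four reference barcodes.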

[2] = variants of: B1; assay: relative integration efficiency (T-LR orientation) vs wild-type transposon end (log2 (normalized fold change)); transposon end mutated: right end (5 bp flank + 75 bp right end); higher = more efficient transposition; conditions: with VchCAST RNA-guided transposition machinery (E. coli BL21(DE3) host, lacZ target)
How it was run: as §1

Variant | relative integration efficiency (log2) [1] | relative integration efficiency (log2) [2]
ACATTTGTTGATACAATCATAAAATGATAATTACACCCATAAATTGATAATTATCACACCCATAAATTGATATTGCCTCTGATCATAGTCAGACCAACATTGCTACGACCCGTATTCGCACCGACAC [TAAATTGATATTGC C17T] | 7.24e-05 ± 0.068 | -0.744 ± 0.39
ACATTTGTTGATACAACAATAAAATGATAATTACACCCATAAATTGATAATTATCACACCCATAAATTGATATTGCCTCTGATCATAGTCAGACCAACATTGCTACGACCCGTATTCGCACCGACAC [TAAATTGATATTGC C18A] | -0.147 ± 0.1 | -0.272 ± 0.024
ACATTTGTTGATACAACGATAAAATGATAATTACACCCATAAATTGATAATTATCACACCCATAAATTGATATTGCCTCTGATCATAGTCAGACCAACATTGCTACGACCCGTATTCGCACCGACAC [TAAATTGATATTGC C18G] | -0.199 ± 0.036 | -0.152 ± 0.14
ACATTTGTTGATACAACTATAAAATGATAATTACACCCATAAATTGATAATTATCACACCCATAAATTGATATTGCCTCTGATCATAGTCAGACCAACATTGCTACGACCCGTATTCGCACCGACAC [TAAATTGATATTGC C18T] | 0.131 ± 0.1 | -0.605 ± 0.2
ACATTTGTTGATACAACCATAAAATGATAATTAAACCCATAAATTGATAATTATCACACCCATAAATTGATATTGCCTCTGATCATAGTCAGACCAACATTGCTACGACCCGTATTCGCACCGACAC [TAAATTGATATTGC C34A] | -0.0537 ± 0.0045 | 0.162 ± 0.16
ACATTTGTTGATACAACCATAAAATGATAATTAGACCCATAAATTGATAATTATCACACCCATAAATTGATATTGCCTCTGATCATAGTCAGACCAACATTGCTACGACCCGTATTCGCACCGACAC [TAAATTGATATTGC C34G] | -0.73 ± 0.11 | -0.479 ± 0.0065
ACATTTGTTGATACAACCATAAAATGATAATTATACCCATAAATTGATAATTATCACACCCATAAATTGATATTGCCTCTGATCATAGTCAGACCAACATTGCTACGACCCGTATTCGCACCGACAC [TAAATTGATATTGC C34T] | -1.32 ± 0.14 | -0.474 ± 0.43
ACATTTGTTGATACAACCATAAAATGATAATTACAACCATAAATTGATAATTATCACACCCATAAATTGATATTGCCTCTGATCATAGTCAGACCAACATTGCTACGACCCGTATTCGCACCGACAC [TAAATTGATATTGC C36A] | 0.40973 ± 0.00019 | 0.478 ± 0.0049
ACATTTGTTGATACAACCATAAAATGATAATTACAGCCATAAATTGATAATTATCACACCCATAAATTGATATTGCCTCTGATCATAGTCAGACCAACATTGCTACGACCCGTATTCGCACCGACAC [TAAATTGATATTGC C36G] | -0.469 ± 0.0075 | -0.695 ± 0.23
ACATTTGTTGATACAACCATAAAATGATAATTACATCCATAAATTGATAATTATCACACCCATAAATTGATATTGCCTCTGATCATAGTCAGACCAACATTGCTACGACCCGTATTCGCACCGACAC [TAAATTGATATTGC C36T] | -0.172 ± 0.077 | -0.179 ± 0.053
ACATTTGTTGATACAACCATAAAATGATAATTACACACATAAATTGATAATTATCACACCCATAAATTGATATTGCCTCTGATCATAGTCAGACCAACATTGCTACGACCCGTATTCGCACCGACAC [TAAATTGATATTGC C37A] | -0.531 ± 0.059 | -1.21 ± 0.23
ACATTTGTTGATACAACCATAAAATGATAATTACACGCATAAATTGATAATTATCACACCCATAAATTGATATTGCCTCTGATCATAGTCAGACCAACATTGCTACGACCCGTATTCGCACCGACAC [TAAATTGATATTGC C37G] | -0.123 ± 0.11 | -0.169 ± 0.072
